This is an account of results in article PMC3415457, “Cohesin Rings Devoid of Scc3 and Pds5 Maintain Their Stable Association with the DNA” (PLoS Genetics, 2012).

To fix the notation:
B1: Wpl1, recombinant, His6-tagged (natural protein, S. cerevisiae (budding yeast), UniProt Q99359 1-647, looked up)
chain: MRAYGKRGPVLRTPFRSNKGLPSSSDVEFSDDDVNSVIPDVSSTISSSIADHPIEGLLDEPRKAQDSSSSFDGANEKPSSQLDSKRNDQNVKIITSSDTSMAFMKDEKLSAFNFLDGSKASKRKRRRTYQKHDANITSSIEPDVQDEDSITMHNEFESIRKIYNDINEFILKLPRADDDILNKMLENEMKMDDSIENNSIRTSKDKKYGKFRTILINKNKENEIMGEEVDQKANTLSLNNADNSNAEKEGLTSTNHYNELKNMGDTIKYQDDIEFLLSNSKSNDNTTVPINEYFKKLLNLSLMIINDEEFFQYAKRYFKKEIIKLSFAQFRSDFPELILLQGYLLHKVSESQSDFPPSFDNFSIELSKDDGKIRTKKNKHIKKLSHLNFEDFLRKTQFKTGLYYSLSLWEMHGNLSLDIIKRISILASNKDLFSRHVKTFIPLLEKLITASEFCHMYIEQPEMFDSLISNLNNQFKDMLDDDSLIKILILLTNMEVHNYTLWKEADMIFQSSMNTILESIHPLTDAKVDNILLHLGLCLNICSRENSRLKLDGKLWYDMKTIFVKMIRDGSDTENRLVQGLFYLNFSFLIKQRKENSNLDPGELNLLLVELEAFKSETSQFNEGISNKIEIALNYLKSIYTSERITI
notes: also called Rad61; His6-tagged Wpl1; source: E. coli BL21 (DE3) RIL, purified (Ni-NTA, gel filtration); not shown: His6, C-terminal, kept

Assay [1] concerns the target T1, GST fused to the N-terminal region (aa 1–168) of Scc1 (Saccharomyces cerevisiae (strain ATCC …, UniProt Q12158)).
T1 chain: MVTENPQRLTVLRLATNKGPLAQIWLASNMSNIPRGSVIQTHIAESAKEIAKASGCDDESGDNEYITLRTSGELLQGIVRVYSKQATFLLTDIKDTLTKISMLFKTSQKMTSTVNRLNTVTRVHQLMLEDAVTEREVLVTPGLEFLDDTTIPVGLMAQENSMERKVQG
The assay is described as follows: GST pull-down; Pds5 present: Wpl1 bound as Pds5/Wpl1 complex (Wpl1, Scc3 and Pds5 premixed); direct Wpl1-Scc1 binding alone not reported in text.

Assay [2] concerns the target T2, Pds5, recombinant, His6-tagged (S. cerevisiae (budding yeast), UniProt Q04264 1-1277).
T2 construct: also called His6-tagged Pds5; source: E. coli BL21 (DE3) RIL, purified (Ni-NTA, gel filtration); not shown: His6, C-terminal, kept
T2 sequence (looked up): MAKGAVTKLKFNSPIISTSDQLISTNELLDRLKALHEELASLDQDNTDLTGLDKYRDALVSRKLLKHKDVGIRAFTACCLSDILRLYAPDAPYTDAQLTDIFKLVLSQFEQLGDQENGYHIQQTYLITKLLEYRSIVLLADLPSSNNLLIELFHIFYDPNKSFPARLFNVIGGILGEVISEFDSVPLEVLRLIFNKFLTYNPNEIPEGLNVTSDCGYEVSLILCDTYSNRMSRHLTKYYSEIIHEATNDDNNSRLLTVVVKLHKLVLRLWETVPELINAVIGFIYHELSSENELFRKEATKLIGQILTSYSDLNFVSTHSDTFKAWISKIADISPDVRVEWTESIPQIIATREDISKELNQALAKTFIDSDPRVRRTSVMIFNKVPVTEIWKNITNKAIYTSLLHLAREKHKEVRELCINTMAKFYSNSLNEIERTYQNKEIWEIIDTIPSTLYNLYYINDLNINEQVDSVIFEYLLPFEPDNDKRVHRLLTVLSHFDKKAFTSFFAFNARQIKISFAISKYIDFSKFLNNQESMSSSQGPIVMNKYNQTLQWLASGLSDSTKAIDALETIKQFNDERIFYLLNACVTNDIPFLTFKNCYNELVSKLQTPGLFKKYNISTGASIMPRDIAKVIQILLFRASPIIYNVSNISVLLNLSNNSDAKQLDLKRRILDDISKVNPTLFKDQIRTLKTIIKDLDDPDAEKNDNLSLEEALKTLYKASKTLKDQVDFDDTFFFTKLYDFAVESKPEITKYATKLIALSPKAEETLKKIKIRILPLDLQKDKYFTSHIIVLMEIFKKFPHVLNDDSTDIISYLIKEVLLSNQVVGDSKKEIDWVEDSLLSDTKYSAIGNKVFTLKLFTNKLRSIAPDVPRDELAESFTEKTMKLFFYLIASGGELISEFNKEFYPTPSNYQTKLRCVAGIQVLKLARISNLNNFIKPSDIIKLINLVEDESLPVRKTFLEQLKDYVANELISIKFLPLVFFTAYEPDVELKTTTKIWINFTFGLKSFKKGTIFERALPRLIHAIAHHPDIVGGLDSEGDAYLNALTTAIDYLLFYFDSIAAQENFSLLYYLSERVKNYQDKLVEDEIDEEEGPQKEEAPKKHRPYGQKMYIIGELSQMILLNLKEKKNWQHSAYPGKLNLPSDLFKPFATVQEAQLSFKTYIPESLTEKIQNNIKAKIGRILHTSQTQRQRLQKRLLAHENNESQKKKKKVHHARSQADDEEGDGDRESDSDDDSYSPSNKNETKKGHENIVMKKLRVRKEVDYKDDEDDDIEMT
The assay is described as follows: co-sedimentation; 10–30% glycerol gradient; 10 mM HEPES-KOH pH 7.5, 75 mM NaCl, 0.25 mM EDTA; proteins mixed and preincubated 1 h at 4°C; 38000 rpm, 38 h, 4°C, SW40 Ti; fractions on Coomassie-stained SDS-PAGE. The settings on record: both partners purified.

The target of assay [3] is T3, GST fused to the C-terminal region (aa 338–566) of Scc1 (Saccharomyces cerevisiae (strain ATCC …, UniProt Q12158)).
T3 chain: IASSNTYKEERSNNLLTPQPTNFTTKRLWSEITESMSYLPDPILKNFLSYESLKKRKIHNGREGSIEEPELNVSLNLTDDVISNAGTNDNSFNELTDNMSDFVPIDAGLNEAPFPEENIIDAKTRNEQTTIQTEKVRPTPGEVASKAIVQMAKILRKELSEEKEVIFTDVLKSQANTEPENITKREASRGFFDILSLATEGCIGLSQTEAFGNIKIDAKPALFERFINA
The assay is described as follows: GST pull-down; Scc3 present: Wpl1 bound as Scc3/Wpl1 complex (Wpl1, Scc3 and Pds5 premixed); direct Wpl1-Scc1 binding alone not reported in text.

Assay [4] deals with B1. The assay is described as follows: pull-down; GST fusions of Scc1 regions on glutathione-agarose beads; His6-tagged Wpl1, Scc3 and Pds5 mixed together and pre-incubated 30 min at 4°C, then with beads 2 h at 4°C; 20 mM HEPES pH 7.5, 100 mM NaCl, 5% glycerol, 5 mM 2-mercaptoethanol; washes with 0.5% NP-40; Western blot with Penta-His antibody. The note with it: both partners purified. (In general: A western blot detects proteins with antibodies after separation by electrophoresis.)

Assay [5] addresses T2, Pds5, recombinant, His6-tagged. The assay is described as above. The note with it: both partners purified.
Assay [6] has as its target T4, Scc3, recombinant, His6-tagged (S. cerevisiae (budding yeast), UniProt P40541 1-1150).
T4 construct: also called His6-tagged Scc3; source: E. coli BL21 (DE3) RIL, purified (Ni-NTA, gel filtration); not shown: His6, C-terminal, kept
T4 sequence (looked up): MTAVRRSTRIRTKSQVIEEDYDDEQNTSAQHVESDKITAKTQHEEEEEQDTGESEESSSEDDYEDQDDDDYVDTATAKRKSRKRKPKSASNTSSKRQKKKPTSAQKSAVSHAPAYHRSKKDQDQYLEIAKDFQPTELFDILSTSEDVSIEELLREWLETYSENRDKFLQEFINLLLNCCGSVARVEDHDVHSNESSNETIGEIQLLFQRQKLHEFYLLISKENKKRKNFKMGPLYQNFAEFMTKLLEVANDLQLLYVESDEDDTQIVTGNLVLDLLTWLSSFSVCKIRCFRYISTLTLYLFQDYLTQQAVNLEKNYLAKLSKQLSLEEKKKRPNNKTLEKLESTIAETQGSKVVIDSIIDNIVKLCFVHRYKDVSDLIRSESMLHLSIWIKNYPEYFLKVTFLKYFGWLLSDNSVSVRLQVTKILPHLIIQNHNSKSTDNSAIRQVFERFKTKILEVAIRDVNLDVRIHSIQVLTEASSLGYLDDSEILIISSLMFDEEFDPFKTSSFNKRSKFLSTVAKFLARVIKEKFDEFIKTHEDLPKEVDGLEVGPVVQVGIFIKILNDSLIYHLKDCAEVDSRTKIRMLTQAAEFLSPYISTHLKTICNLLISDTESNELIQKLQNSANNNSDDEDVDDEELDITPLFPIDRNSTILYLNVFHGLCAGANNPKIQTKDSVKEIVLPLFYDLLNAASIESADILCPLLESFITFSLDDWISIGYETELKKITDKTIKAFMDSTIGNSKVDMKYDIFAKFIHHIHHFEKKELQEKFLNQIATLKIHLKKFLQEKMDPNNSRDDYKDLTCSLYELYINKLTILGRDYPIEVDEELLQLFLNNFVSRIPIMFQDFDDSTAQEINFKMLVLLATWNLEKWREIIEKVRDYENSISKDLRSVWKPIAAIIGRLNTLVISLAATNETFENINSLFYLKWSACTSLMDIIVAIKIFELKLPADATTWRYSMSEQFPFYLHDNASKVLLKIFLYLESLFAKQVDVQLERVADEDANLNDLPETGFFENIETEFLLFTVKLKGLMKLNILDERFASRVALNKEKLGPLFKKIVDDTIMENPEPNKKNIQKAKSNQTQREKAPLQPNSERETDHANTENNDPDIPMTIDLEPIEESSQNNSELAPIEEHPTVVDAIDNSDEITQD
The description is as above. The settings on record: both partners purified.

On to B1, for which the binding result in assay [1], in assay [2] and in assay [3] was “binds” in each case.

B2: GST fused to the N-terminal region (aa 1–168) of Scc1 (domain or fragment, S. cerevisiae (budding yeast), UniProt Q12158 1-168, looked up)
chain: MVTENPQRLTVLRLATNKGPLAQIWLASNMSNIPRGSVIQTHIAESAKEIAKASGCDDESGDNEYITLRTSGELLQGIVRVYSKQATFLLTDIKDTLTKISMLFKTSQKMTSTVNRLNTVTRVHQLMLEDAVTEREVLVTPGLEFLDDTTIPVGLMAQENSMERKVQG
notes: Scc1 of budding yeast, N-terminal region, aa 1–168; The methods' sentence on C-terminal His6 tags follows the list of constructs; whether it also holds for the GST fusions is not clear; also called N-terminal region of Scc1; Scc1 N-terminus
As to B2, the binding result in assay [4] and in assay [5] was “binds” each time.

B3: GST fused to the C-terminal region (aa 338–566) of Scc1 (domain or fragment, S. cerevisiae (budding yeast), UniProt Q12158 338-566, looked up)
chain: IASSNTYKEERSNNLLTPQPTNFTTKRLWSEITESMSYLPDPILKNFLSYESLKKRKIHNGREGSIEEPELNVSLNLTDDVISNAGTNDNSFNELTDNMSDFVPIDAGLNEAPFPEENIIDAKTRNEQTTIQTEKVRPTPGEVASKAIVQMAKILRKELSEEKEVIFTDVLKSQANTEPENITKREASRGFFDILSLATEGCIGLSQTEAFGNIKIDAKPALFERFINA
notes: Scc1 of budding yeast, C-terminal region, aa 338–566; The methods' sentence on C-terminal His6 tags follows the list of constructs; whether it also holds for the GST fusions is not clear; also called C-terminal part of Scc1; Scc1 C-terminus
Turning to B3, the binding result in assay [4] and in assay [6] was “binds” in each case.
